# Data reported in publication PMC8269962 (Nature, 2021).
# T1: B/Vic-I53_dn5 nanoparticle (Influenza B virus B/Brisbane/60/2008 …, strain)
# T1 chain: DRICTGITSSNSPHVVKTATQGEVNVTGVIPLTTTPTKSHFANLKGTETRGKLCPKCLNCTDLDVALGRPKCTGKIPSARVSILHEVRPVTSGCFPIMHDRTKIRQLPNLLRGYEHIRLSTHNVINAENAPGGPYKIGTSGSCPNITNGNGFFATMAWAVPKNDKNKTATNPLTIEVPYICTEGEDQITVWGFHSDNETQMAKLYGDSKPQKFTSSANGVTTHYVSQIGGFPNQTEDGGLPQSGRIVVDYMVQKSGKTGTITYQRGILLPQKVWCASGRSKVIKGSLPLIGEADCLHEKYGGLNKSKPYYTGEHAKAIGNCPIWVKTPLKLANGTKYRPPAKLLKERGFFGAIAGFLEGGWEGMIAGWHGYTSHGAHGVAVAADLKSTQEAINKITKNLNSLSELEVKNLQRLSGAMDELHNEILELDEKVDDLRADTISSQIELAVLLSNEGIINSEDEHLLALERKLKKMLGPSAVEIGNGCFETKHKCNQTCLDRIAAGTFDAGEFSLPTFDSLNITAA
# B1: CR8071 (antibody, V domains shown)
# VH: QVQLVQSGAEVKKPGASVRVSCRASGYIFTESGITWVRQAPGQGLEWMGWISGYSGDTKYAQKLQGRVTMTKDTSTTTAYMELRSLRYDDTAVYYCARDVQYSGSYLGAYYFDYWSPGTLVTVSS
# VL: QSVLTQPPSASGTPGQRVTISCSGSSSNIGTNYVYWYQQFPGTAPKLLIYRSYQRPSGVPDRFSGSKSGSSASLAISGLQSEDEADYYCATWDDSLDGWVFGGGTKLTVL
# Target: T1, B/Vic-I53_dn5 nanoparticle
# Assay: ELISA
binder,measurement,value
B1,binding result,binds
